For 24 sequences, IC50 results are on record in the Immune Epitope Database (IEDB).

As a reminder, the IC50 is the concentration at which inhibition is half-maximal.

What all share (assay): IEDB peptide-MHC binding, purified MHC/competitive/radioactivity; ≥ and ≤ were set here for values at or beyond the usual limits of such assays
The target in assay [1] is HLA-A*68:02.
The target of assay [2] is HLA-A*02:01.
The target of assay [3] is HLA-A*02:06.
Assay [4] has as its target HLA-A*02:03.
For assay [5], the target named is HLA-A*02:02.
[6] abbreviates: source organism: Vaccinia virus WR.
Setting [7] is: source organism: Influenza A virus.
Where [8] appears, read: source organism: Mammarenavirus whitewaterense.
[9] abbreviates: source organism: Mammarenavirus guanaritoense.

With VVHGYFTEV, the IC50 in assay [1] (source organism: SARS-CoV1) is 24 nM; in assay [2] (source organism: SARS-CoV1), 15 nM; in assay [3] (source organism: SARS-CoV1), 2.6 nM; in assay [4] (source organism: SARS-CoV1), 3.3 nM; in assay [5] (source organism: SARS-CoV1), 17 nM.

With VVISVIFYFI, the IC50 was 583 nM in assay [1] (setting [6]); 616 nM in assay [2] (setting [6]); 542 nM in assay [3] (setting [6]); 755 nM in assay [4] (setting [6]); 239 nM in assay [5] (setting [6]).

As for WISDNTHIYL, the IC50 in assay [1] (setting [6]) came to 4.8 nM; in assay [2] (setting [6]), 12 nM; in assay [3] (setting [6]), 1.8 nM; in assay [4] (setting [6]), 1.2 nM; in assay [5] (setting [6]), 0.14 nM.

With WISFAISCFL, the IC50 in assay [1] (setting [7]) was found to be 364 nM; in assay [2] (setting [7]), 3510 nM; in assay [3] (setting [7]), 819 nM; in assay [4] (setting [7]) it was 355 nM; in assay [5] (setting [7]) it was 230 nM.

Regarding WLGAAITLVV, the IC50 in assay [1] (setting [6]) is 264 nM; in assay [2] (setting [6]) it was 123 nM; in assay [3] (setting [6]) it was 1840 nM; in assay [4] (setting [6]), 78 nM; in assay [5] (setting [6]), 20 nM.

WLKDSAIMV: the IC50 in assay [1] (setting [6]) was 1010 nM; in assay [2] (setting [6]) it was 326 nM; in assay [3] (setting [6]), 2280 nM; in assay [4] (setting [6]), 28 nM; in assay [5] (setting [6]), 191 nM.

As for WLLWPVTLA, the IC50 is 151 nM in assay [1] (source organism: SARS-CoV1); 6.8 nM in assay [2] (source organism: SARS-CoV1); 17 nM in assay [3] (source organism: SARS-CoV1); 1.2 nM in assay [4] (source organism: SARS-CoV1); 12 nM in assay [5] (source organism: SARS-CoV1).

WLMWFIISIV: the IC50 in assay [1] (source organism: SARS-CoV1) stood at 2890 nM; in assay [2] (source organism: SARS-CoV1) it was 33 nM; in assay [3] (source organism: SARS-CoV1), 107 nM; in assay [4] (source organism: SARS-CoV1), 4.7 nM; in assay [5] (source organism: SARS-CoV1), 246 nM.

For WLVIGVAFL, the IC50 turned out to be 127 nM in assay [1] (source organism: SARS-CoV1); 35 nM in assay [2] (source organism: SARS-CoV1); 180 nM in assay [3] (source organism: SARS-CoV1); 0.94 nM in assay [4] (source organism: SARS-CoV1); 2.6 nM in assay [5] (source organism: SARS-CoV1).

Consider WSYNAELLVA, for which the concentration for half-maximal inhibition (IC50) in assay [1] (setting [7]) stood at 1620 nM; in assay [2] (setting [7]) it was 256 nM; in assay [3] (setting [7]) it was 15 nM; in assay [4] (setting [7]), 14 nM; in assay [5] (setting [7]), 242 nM.

Regarding WVMDTLNGI, the IC50 came out at 0.44 nM in assay [1] (setting [6]); 12 nM in assay [2] (setting [6]); 0.73 nM in assay [3] (setting [6]); 1 nM in assay [4] (setting [6]); 9.8 nM in assay [5] (setting [6]).

With WVMDTLNGIM, the IC50 in assay [1] (setting [6]) came out at 101 nM; in assay [2] (setting [6]), 175 nM; in assay [3] (setting [6]) it was 129 nM; in assay [4] (setting [6]) it was 194 nM; in assay [5] (setting [6]), 1330 nM.

Regarding YAAEMVEYL, the IC50 worked out at 13 nM in assay [1] (setting [6]); 32 nM in assay [2] (setting [6]); 12 nM in assay [3] (setting [6]); 2.1 nM in assay [4] (setting [6]); 0.52 nM in assay [5] (setting [6]).

As to YASALVLLI, the IC50 in assay [1] (source organism: SARS-CoV1) is 10 nM; in assay [2] (source organism: SARS-CoV1), 13 nM; in assay [3] (source organism: SARS-CoV1) it was 8.7 nM; in assay [4] (source organism: SARS-CoV1), 4.9 nM; in assay [5] (source organism: SARS-CoV1), 3.2 nM.

In the case of YASLTTIGT, the IC50 in assay [1] (setting [6]) was 52 nM; in assay [2] (setting [6]) it was 868 nM; in assay [3] (setting [6]), 161 nM; in assay [4] (setting [6]), 144 nM; in assay [5] (setting [6]), 409 nM.

Take YCNYTKFWYV: the half-maximal inhibitory concentration (IC50) in assay [1] (setting [8]) turned out to be 490 nM; in assay [2] (setting [8]) it was 75 nM; in assay [3] (setting [8]) it was 6.5 nM; in assay [4] (setting [8]) it was 102 nM; in assay [5] (setting [8]), 322 nM.

As for YCNYTRFWYI, the IC50 in assay [1] (setting [9]) was 1340 nM; in assay [2] (setting [9]), 322 nM; in assay [3] (setting [9]), 81 nM; in assay [4] (setting [9]) it was 4340 nM; in assay [5] (setting [9]), 1060 nM.

In the case of YIAGLKIEEI, the IC50 amounted to 669 nM in assay [1] (setting [6]); 9.5 nM in assay [2] (setting [6]); 134 nM in assay [3] (setting [6]); 5.3 nM in assay [4] (setting [6]); 8.9 nM in assay [5] (setting [6]).

Turning to YIALCKVTV, the IC50 came out at 48 nM in assay [1] (setting [6]); 15 nM in assay [2] (setting [6]); 19 nM in assay [3] (setting [6]); 24 nM in assay [4] (setting [6]); 12 nM in assay [5] (setting [6]).

Consider YIFFASFYYI, for which the IC50 in assay [1] (source organism: SARS-CoV1) came to 2.2 nM; in assay [2] (source organism: SARS-CoV1), 15 nM; in assay [3] (source organism: SARS-CoV1) it was 0.8 nM; in assay [4] (source organism: SARS-CoV1) it was 60 nM; in assay [5] (source organism: SARS-CoV1), 0.46 nM.

YIILFILFFA: the IC50 in assay [1] (setting [6]) was found to be 270 nM; in assay [2] (setting [6]), 234 nM; in assay [3] (setting [6]) it was 1050 nM; in assay [4] (setting [6]), 674 nM; in assay [5] (setting [6]) it was 263 nM.

Take YIMRVMANNV: the IC50 in assay [1] (setting [6]) stood at 42 nM; in assay [2] (setting [6]) it was 49 nM; in assay [3] (setting [6]), 14 nM; in assay [4] (setting [6]) it was 2 nM; in assay [5] (setting [6]) it was 23 nM.

Turning to YIPPCQCTV, the IC50 in assay [1] (setting [6]) was determined as 228 nM; in assay [2] (setting [6]), 107 nM; in assay [3] (setting [6]), 92 nM; in assay [4] (setting [6]), 445 nM; in assay [5] (setting [6]), 196 nM.

In the case of YIWKSYVHI, the IC50 in assay [1] (source organism: SARS-CoV1) was found to be 104 nM; in assay [2] (source organism: SARS-CoV1), 24 nM; in assay [3] (source organism: SARS-CoV1) it was 8.9 nM; in assay [4] (source organism: SARS-CoV1) it was 13 nM; in assay [5] (source organism: SARS-CoV1), 86 nM.
